From patent US20250262210A1 (TRUSTEES OF COLUMBIA UNIVERSITY IN THE CITY OF NEW YORK, published 2025)

Target: T1, RALGAPB (human, UniProt Q86X10 1-1494, limits assumed)
T1 sequence (looked up): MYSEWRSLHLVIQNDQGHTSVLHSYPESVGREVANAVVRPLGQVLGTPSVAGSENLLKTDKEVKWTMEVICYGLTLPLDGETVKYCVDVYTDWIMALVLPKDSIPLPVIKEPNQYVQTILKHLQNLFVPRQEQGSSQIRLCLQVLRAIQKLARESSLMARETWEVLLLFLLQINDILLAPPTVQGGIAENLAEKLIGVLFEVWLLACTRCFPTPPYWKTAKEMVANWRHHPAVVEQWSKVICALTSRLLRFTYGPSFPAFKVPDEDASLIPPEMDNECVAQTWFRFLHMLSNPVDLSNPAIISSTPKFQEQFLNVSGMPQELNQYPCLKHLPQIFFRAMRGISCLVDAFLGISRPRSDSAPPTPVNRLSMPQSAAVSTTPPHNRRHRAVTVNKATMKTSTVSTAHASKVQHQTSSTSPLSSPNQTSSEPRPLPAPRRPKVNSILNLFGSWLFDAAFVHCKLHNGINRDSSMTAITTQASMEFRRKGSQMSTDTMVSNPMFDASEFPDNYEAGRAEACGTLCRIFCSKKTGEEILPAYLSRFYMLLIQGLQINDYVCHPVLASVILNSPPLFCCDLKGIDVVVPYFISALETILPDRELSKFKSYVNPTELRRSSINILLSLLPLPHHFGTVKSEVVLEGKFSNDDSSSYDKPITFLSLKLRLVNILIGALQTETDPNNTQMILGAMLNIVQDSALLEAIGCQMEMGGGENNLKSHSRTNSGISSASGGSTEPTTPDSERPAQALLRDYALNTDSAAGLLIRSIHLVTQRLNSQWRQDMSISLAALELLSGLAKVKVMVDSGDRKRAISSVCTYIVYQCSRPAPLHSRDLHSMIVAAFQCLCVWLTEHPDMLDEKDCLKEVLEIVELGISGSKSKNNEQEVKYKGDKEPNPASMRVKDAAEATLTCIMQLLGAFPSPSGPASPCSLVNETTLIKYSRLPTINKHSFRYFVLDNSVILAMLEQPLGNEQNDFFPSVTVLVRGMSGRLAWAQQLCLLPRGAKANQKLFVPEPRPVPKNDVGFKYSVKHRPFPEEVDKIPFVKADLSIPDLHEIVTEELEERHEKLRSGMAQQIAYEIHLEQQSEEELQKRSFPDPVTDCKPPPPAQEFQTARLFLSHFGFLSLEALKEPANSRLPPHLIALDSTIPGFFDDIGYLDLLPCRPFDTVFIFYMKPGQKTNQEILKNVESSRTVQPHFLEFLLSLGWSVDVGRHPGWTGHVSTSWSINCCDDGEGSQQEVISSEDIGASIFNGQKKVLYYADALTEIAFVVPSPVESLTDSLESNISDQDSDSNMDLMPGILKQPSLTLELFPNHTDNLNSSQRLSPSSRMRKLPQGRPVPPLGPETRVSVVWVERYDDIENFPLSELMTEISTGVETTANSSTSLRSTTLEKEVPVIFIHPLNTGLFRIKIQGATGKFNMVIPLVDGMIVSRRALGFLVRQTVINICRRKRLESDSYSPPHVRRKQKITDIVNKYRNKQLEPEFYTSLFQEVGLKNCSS
Assay: IP/MS, LZTR1 R810W-FLAG, U87
Summary of the method: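 Gel slices were reduced with 5 mM DTT, alkylated with 11 mM IAA and digested overnight at 37° C. with trypsin. Peptides were analysed on an Orbitrap Fusion Tribrid by LC-MS/MS.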

B1: LZTR1 R810W-FLAG (other, human, UniProt Q8N653 1-840, looked up)
chain: MAGPGSTGGQIGAAALAGGARSKVAPSVDFDHSCSDSVEYLTLNFGPFETVHRWRRLPPCDEFVGARRSKHTVVAYKDAIYVFGGDNGKTMLNDLLRFDVKDCSWCRAFTTGTPPAPRYHHSAVVYGSSMFVFGGYTGDIYSNSNLKNKNDLFEYKFATGQWTEWKIEGRLPVARSAHGATVYSDKLWIFAGYDGNARLNDMWTIGLQDRELTCWEEVAQSGEIPPSCCNFPVAVCRDKMFVFSGQSGAKITNNLFQFEFKDKTWTRIPTEHLLRGSPPPPQRRYGHTMVAFDRHLYVFGGAADNTLPNELHCYDVDFQTWEVVQPSSDSEVGGAEVPERACASEEVPTLTYEERVGFKKSRDVFGLDFGTTSAKQPTQPASELPSGRLFHAAAVISDAMYIFGGTVDNNIRSGEMYRFQFSCYPKCTLHEDYGRLWESRQFCDVEFVLGEKEECVQGHVAIVTARSRWLRRKITQARERLAQKLEQEAAPVPREAPGVAAGGARPPLLHVAIREAEARPFEVLMQFLYTDKIKYPRKGHVEDVLLIMDVYKLALSFQLCRLEQLCRQYIEASVDLQNVLVVCESAARLQLSQLKEHCLNFVVKESHFNQVIMMKEFERLSSPLIVEIVRRKQQPPPRTPLDQPVDIGTSLIQDMKAYLEGAGAEFCDITLLLDGHPRPAHKAILAARSSYFEAMFRSFMPEDGQVNISIGEMVPSRQAFESMLRYIYYGEVNMPPEDSLYLFAAPYYYGFYNNRLQAYCKQNLEMNVTVQNVLQILEAADKTQALDMKRHCLHIIVHQFTKVSKLPTLWSLSQQLLLDIIDSLASHISDKQCAELGADI
notes: Stably expressed in U87 cells by lentivirus; also called LZTR1-FLAG-R810W; LZTR1 RW; not shown: FLAG tag
  binding result: binds
